One test concerns the target T1, Rat SLC34A2 (rat, UniProt Q9JJ09 1-695).
T1 construct: whole, on cells; also called Rat1E cells expressing SLC34A2 (Rat)
T1 sequence (looked up): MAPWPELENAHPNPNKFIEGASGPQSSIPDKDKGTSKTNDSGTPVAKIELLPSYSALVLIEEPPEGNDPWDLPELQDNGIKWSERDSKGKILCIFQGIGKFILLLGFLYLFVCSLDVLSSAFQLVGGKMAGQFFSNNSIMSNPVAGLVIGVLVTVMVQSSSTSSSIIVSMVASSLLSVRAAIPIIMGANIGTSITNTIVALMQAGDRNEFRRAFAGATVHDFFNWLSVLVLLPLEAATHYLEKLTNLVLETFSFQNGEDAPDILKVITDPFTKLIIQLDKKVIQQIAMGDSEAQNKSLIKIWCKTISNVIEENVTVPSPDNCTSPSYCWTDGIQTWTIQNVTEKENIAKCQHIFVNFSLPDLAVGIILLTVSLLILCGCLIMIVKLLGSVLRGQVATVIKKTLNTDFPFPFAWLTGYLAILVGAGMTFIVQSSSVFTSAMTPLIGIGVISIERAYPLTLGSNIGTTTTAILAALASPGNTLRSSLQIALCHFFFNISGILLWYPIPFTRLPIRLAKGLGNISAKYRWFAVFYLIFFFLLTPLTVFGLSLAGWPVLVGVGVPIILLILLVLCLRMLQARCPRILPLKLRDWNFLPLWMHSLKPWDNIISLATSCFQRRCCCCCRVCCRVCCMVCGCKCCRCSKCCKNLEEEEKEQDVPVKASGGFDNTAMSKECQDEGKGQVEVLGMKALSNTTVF
Description: binding affinity on Rat1E cells expressing rat SLC34A2.

In test [1] the target is T2, Human SLC34A2 (human, UniProt O95436 1-690).
T2 construct: whole, on cells; also called SLC34A2 on OVCAR3 cells; Rat 1E Human SLC34A2
T2 sequence (looked up): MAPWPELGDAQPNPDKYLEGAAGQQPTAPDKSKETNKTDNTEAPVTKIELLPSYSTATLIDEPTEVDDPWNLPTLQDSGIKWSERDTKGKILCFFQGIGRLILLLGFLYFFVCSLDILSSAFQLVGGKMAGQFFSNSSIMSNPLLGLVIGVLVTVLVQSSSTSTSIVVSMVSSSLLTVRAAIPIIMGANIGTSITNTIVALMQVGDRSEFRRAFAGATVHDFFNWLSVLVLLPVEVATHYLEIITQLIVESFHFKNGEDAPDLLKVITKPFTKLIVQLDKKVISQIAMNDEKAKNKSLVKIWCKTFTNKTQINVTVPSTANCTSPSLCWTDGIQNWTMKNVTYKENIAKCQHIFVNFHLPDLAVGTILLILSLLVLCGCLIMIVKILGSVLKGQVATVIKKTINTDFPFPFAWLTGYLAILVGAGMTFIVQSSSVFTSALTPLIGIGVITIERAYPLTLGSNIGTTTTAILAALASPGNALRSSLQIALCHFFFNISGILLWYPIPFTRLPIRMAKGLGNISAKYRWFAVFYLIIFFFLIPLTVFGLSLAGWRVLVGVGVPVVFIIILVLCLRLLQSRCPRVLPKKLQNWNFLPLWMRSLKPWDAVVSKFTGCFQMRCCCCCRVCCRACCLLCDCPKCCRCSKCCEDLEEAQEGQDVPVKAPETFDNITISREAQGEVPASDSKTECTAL
Description: cell binding, OVCAR3 cells.

Test [2] addresses T3, Human SLC34A3 (human, UniProt Q8N130).
T3 sequence (target protein, looked up): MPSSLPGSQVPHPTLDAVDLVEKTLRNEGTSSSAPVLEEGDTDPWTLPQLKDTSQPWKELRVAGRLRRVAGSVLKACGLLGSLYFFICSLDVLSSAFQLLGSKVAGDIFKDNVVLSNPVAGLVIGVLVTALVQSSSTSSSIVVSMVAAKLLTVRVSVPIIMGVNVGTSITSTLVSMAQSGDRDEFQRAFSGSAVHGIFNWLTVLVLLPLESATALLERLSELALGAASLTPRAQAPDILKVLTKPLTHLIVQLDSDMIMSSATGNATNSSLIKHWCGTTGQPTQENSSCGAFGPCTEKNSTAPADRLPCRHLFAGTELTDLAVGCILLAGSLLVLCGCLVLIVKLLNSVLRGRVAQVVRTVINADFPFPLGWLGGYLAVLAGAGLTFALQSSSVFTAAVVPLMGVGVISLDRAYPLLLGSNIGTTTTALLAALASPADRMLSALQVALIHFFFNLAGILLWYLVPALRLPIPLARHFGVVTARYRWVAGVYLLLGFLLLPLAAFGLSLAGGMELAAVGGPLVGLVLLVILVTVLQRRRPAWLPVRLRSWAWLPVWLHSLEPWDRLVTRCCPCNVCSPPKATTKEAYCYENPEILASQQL
Briefly: flow cytometry on 293-FT cells transiently transfected with human SLC34A3, overlay with isotype control. A general note: Flow cytometry measures light scatter and fluorescence of single cells or particles in a stream.

The target of a further test is Murine SLC34A2 (murine) (UniProt Q9DBP0). Briefly: cell binding, Rat1E cells expressing murine SLC34A2.
For test [3], the target named is T2, Human SLC34A2. Briefly: cell binding, Rat1E cells expressing human SLC34A2.
Test [4] concerns the target T4, Cyno SLC34A2 (cynomolgus monkey, UniProt A0A2K5UHY1 1-690).
T4 construct: whole, on cells; Recombinant, on Rat1E cells; also called cynomolgus monkey SLC34A2; Rat1E cells expressing SLC34A2 (Cynomolgus)
T4 sequence: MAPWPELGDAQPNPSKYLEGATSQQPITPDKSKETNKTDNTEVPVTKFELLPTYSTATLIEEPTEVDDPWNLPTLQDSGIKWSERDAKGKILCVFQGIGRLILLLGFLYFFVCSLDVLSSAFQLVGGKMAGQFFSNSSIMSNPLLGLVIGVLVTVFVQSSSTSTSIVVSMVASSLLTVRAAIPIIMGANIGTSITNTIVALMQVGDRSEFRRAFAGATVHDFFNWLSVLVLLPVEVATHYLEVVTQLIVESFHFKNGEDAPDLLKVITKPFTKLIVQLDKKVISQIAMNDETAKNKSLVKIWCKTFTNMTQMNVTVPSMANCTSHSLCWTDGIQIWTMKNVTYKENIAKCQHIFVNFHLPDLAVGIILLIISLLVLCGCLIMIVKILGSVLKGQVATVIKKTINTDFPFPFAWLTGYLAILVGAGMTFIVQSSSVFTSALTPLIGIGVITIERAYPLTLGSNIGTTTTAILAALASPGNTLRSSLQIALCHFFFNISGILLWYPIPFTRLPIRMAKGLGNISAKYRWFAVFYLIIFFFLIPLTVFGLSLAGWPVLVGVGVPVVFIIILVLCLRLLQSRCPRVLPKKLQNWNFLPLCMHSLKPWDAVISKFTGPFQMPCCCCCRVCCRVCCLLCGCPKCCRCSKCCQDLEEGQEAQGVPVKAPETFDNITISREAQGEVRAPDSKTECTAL
Description: binding affinity on Rat1E cells expressing cynomolgus SLC34A2.

Test [5] deals with T4, Cyno SLC34A2. Briefly: cell binding, Rat1E cells expressing cyno SLC34A2.
The target of test [6] is T2, Human SLC34A2. Briefly: binding affinity on Rat1E cells expressing human SLC34A2.
For test [7], the target named is T5, Human SLC34A1 (human, UniProt Q06495).
T5 sequence (target protein, looked up): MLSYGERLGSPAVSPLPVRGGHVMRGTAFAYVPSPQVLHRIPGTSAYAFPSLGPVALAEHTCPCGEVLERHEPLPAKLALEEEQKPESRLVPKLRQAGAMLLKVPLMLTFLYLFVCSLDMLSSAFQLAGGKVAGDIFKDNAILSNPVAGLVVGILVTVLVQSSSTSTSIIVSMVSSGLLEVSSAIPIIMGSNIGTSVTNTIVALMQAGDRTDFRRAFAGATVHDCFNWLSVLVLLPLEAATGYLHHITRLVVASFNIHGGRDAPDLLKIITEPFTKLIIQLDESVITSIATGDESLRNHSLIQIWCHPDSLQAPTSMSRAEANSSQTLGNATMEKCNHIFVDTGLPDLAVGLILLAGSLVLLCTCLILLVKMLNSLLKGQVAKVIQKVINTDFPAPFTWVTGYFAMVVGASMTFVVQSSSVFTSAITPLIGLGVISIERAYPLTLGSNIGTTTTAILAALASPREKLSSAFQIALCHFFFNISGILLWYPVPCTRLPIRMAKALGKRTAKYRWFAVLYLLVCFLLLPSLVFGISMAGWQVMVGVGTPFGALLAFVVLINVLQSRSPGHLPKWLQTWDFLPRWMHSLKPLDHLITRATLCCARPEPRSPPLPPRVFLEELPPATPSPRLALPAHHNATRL
Description: flow cytometry on 293-FT cells transiently transfected with human SLC34A1, overlay with isotype control.

The target in test [8] is T5, Human SLC34A1. Briefly: flow cytometry on 293-FT cells transiently transfected with human SLC34A1, overlay with isotype control ADC.
The target in test [9] is T2, Human SLC34A2. Description: cell-based or functional assay.
Test [10] addresses T3, Human SLC34A3. Description: flow cytometry on 293-FT cells transiently transfected with human SLC34A3, overlay with isotype control ADC.

This is an account of results in patent publication US20230073692A1 (CYTOMX THERAPEUTICS, published 2023).

Usually Kd stands for the concentration at which binding is half-saturated. Higher therefore signals weaker binding.

Substitutions are numbered along the chain they refer to. Names and notes keep the numbering of the source.

B1: cHv83-1b15.G1(L328C)k (antibody, V domains shown)
VH: EVQLVESGGGWVQPGGSLRLSCAASGFTFSSHIMYWVRQAPGKGLEYVSGISSNGLSSYYVDSVKGRFTISRDNSKNLLYVHMGSLKPEDMAMYYCARGGRDRVPAVFDYWGQGTLVTVSS
VL: DIQMTQSPSSLSASIGDRVTITCRASQSIGTFLNWYQQKPGKAPKVLIYVASSLQSGVPSRFIGSGSGTDFTLTISSLQPEDFATYYCQQSYSVPITFGQGTRLEIKR
notes: the name says L328C in the IgG1 constant region; also called [Ag]AB-3; cHv83-1b15.G1k(L328C)k
In the case of B1, the Kd came out at 0.246 nM with Rat SLC34A2; 3.79 nM with Human SLC34A2 [1]; 0.0631 nM in the test with Murine SLC34A2 (murine); 1.03 nM with Human SLC34A2 [3]; 0.67 nM with Cyno SLC34A2 [4]; 0.967 nM in the test with Cyno SLC34A2 [5]. Binding with Human SLC34A2 [6] was characterised by a dissociation constant (Kd) of 0.721 nM. Besides, the binding result with Human SLC34A3 [2] and with Human SLC34A1 [7] was “no binding” throughout. The Bmax with Murine SLC34A2 (murine) was determined as 15000.

B2: cHv83-1b15.G1(L328C)k-AGL-01332-93 (OT#2) (other)
VH: B1 VH
VL: B1 VL
modifications: AGL-01332-93 drug-linker conjugated to the antibody; engineered Cys at 328 (L328C) lies in the IgG1 constant region, outside the VH pieces given
notes: Human IgG1 (L328C) / kappa
As for B2, the figures for the dissociation constant Kd in the test with Rat SLC34A2, with Cyno SLC34A2 [4] and in the test with Human SLC34A2 [6] were 0.913 nM, 1.2 nM and 1.76 nM, respectively. Also, the binding result with Human SLC34A1 [8] and with Human SLC34A3 [10] was “no binding” in each case. Also, the “in vitro cytotoxicity in target-positive OVCAR3 cells” value with Human SLC34A2 [9] is > 10 fold better EC50 than the benchmark ADC.

B3: cHv83-3a23.G1(L328C)k (antibody, V domains shown)
VH: EVQLVESGGGLVQPGGSLRLSCAASGFTFSSYVMHWVRQAPGKGLEYVSGVSSSGDSTFYVDSVKGRFTISRDNSKNTLYLQMGSLRAEDMAVYYCARGGITGAPLVFDIWGQGTMVTVSS
VL: B1 VL with I15V, G30S, T31R, A51T, I63S, S93N, V94T
notes: the name says L328C in the IgG1 constant region; also called [Ag]AB-2; unconjugated antibody of OT1 / OT#1
On to B3, for which the Kd in the test with Rat SLC34A2 was found to be 0.689 nM; with Human SLC34A2 [1], 2.28 nM; with Murine SLC34A2 (murine), 0.0903 nM; with Human SLC34A2 [3], 0.254 nM; with Cyno SLC34A2 [4], 0.17 nM; with Cyno SLC34A2 [5], 0.17 nM. Moreover, the equilibrium dissociation constant (Kd) with Human SLC34A2 [6] was 0.553 nM. In addition, the binding result with Human SLC34A3 [2] and in the test with Human SLC34A1 [7] was “no binding” in each case. In the test with Murine SLC34A2 (murine), this molecule gave a Bmax of 11300.

B4: cHv83-3a23.G1(L328C)k-AGL-01332-93 (OT#1) (other)
VH: B3 VH
VL: B1 VL with I15V, G30S, T31R, A51T, I63S, S93N, V94T
modifications: AGL-01332-93 drug-linker conjugated to the antibody; engineered Cys at 328 (L328C) lies in the IgG1 constant region, outside the VH pieces given
notes: Human IgG1 (L328C) / kappa
As for B4, the Kd in the test with Rat SLC34A2 amounted to 0.686 nM; with Cyno SLC34A2 [4], 0.227 nM; with Human SLC34A2 [6], 0.411 nM. For the same molecule, the binding result in the test with Human SLC34A1 [8] and in the test with Human SLC34A3 [10] was “no binding” in each case. In addition, in the test with Human SLC34A2 [9], the “in vitro cytotoxicity in target-positive OVCAR3 cells” value is > 10 fold better EC50 than the benchmark ADC.
